According to the supplement of paper PMC10567573:

B1: CLCN6 (parent)
chain: TGLVGLFVDFFVRLFTQLKFGVVQ

Variants of: B1
Experiment: protein stability index of a GFP-peptide fusion (GPS, HEK-293T) (PSI 1-6); higher = more stable
Conditions: c terminus: a fixed tail appended
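Note: lentivirally expressed fusions sorted by FACS into six bins by GFP to DsRed ratio, PSI derived from sequencing read proportions per bin multiplied by bin number.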

First: TGLCGLFVDFFVRLFTQLKFGVVQ [V4C]
Second: TGLYGLFVDFFVRLFTQLKFGVVQ [V4Y]
The protein stability index of the first is higher: 2.36 for the first, 2.07 for the second.

Going from TGLVGLFVDAFVRLFTQLKFGVVQ [F10A] to TGLVGLFVDYFVRLFTQLKFGVVQ [F10Y], the protein stability index falls from 2.34 to 2.27.

Going from TGLVGLFVDKFVRLFTQLKFGVVQ [F10K] to TGLVGLFVDDFVRLFTQLKFGVVQ [F10D], the protein stability index rises from 1.98 to 2.75.

Compared with TGLVGLFFDFFVRLFTQLKFGVVQ [V8F], TGLVGLFQDFFVRLFTQLKFGVVQ [V8Q] is higher in protein stability index: 2.04 for the first, 2.05 for the second.

First: TGLVGLFTDFFVRLFTQLKFGVVQ [V8T]
Second: TGLVGLFLDFFVRLFTQLKFGVVQ [V8L]
The protein stability index of the first is lower: 1.9 for the first, 3.04 for the second.

Compared with TGLVGLFEDFFVRLFTQLKFGVVQ [V8E], TGLVGLFHDFFVRLFTQLKFGVVQ [V8H] is higher in protein stability index: 1.38 for the first, 2.77 for the second.

Going from TGLVGLFNDFFVRLFTQLKFGVVQ [V8N] to TGLVGLFADFFVRLFTQLKFGVVQ [V8A], the protein stability index falls from 2.27 to 1.6.

First: TGLVGLFVDFFVRCFTQLKFGVVQ [L14C]
Second: TGLVGLFVDFFVRVFTQLKFGVVQ [L14V]
The protein stability index of the first is higher: 2.1 for the first, 2.02 for the second.

First: TGLVGLFVDFFVRKFTQLKFGVVQ [L14K]
Second: TGLVGLFVDFFVRRFTQLKFGVVQ [L14R]
The protein stability index of the first is higher: 2.34 for the first, 1.86 for the second.

Going from TGLVGLFVDFFVRSFTQLKFGVVQ [L14S] to TGLVGLFVDFFVRTFTQLKFGVVQ [L14T], the protein stability index falls from 2.19 to 1.99.

First: TWLVGLFVDFFVRLFTQLKFGVVQ [G2W]
Second: TELVGLFVDFFVRLFTQLKFGVVQ [G2E]
The protein stability index of the first is higher: 2.22 for the first, 1.67 for the second.

Compared with THLVGLFVDFFVRLFTQLKFGVVQ [G2H], TPLVGLFVDFFVRLFTQLKFGVVQ [G2P] is lower in protein stability index: 2.34 for the first, 1.67 for the second.

Going from TGLVGLFVDFFVRLFTQLKFGVEQ [V23E] to TGLVGLFVDFFVRLFTQLKFGVLQ [V23L], the protein stability index rises from 1.94 to 2.92.

Going from TGLVGLFVDFGVRLFTQLKFGVVQ [F11G] to TGLVGLFVDFYVRLFTQLKFGVVQ [F11Y], the protein stability index rises from 1.76 to 2.32.

First: TGLVGLFVDFLVRLFTQLKFGVVQ [F11L]
Second: TGLVGLFVDFTVRLFTQLKFGVVQ [F11T]
The protein stability index of the first is higher: 2.32 for the first, 2.01 for the second.

Going from TGLVGLFVDFRVRLFTQLKFGVVQ [F11R] to TGLVGLFVDFHVRLFTQLKFGVVQ [F11H], the protein stability index falls from 2.75 to 2.21.

Going from TGLVGLFVDFMVRLFTQLKFGVVQ [F11M] to TGLVGLFVDFWVRLFTQLKFGVVQ [F11W], the protein stability index rises from 2.16 to 2.35.

Compared with TGLVGLFVDFQVRLFTQLKFGVVQ [F11Q], TGLVGLFVDFNVRLFTQLKFGVVQ [F11N] is lower in protein stability index: 3.25 for the first, 2.88 for the second.

First: TGLVGLFVDFFVRLFTQLRFGVVQ [K19R]
Second: TGLVGLFVDFFVRLFTQLYFGVVQ [K19Y]
The protein stability index of the first is lower: 2.17 for the first, 2.85 for the second.

First: TGLVGLFVDFFVRLFTQLVFGVVQ [K19V]
Second: TGLVGLFVDFFVFLFTQLKFGVVQ [R13F]
The protein stability index of the first is lower: 2.66 for the first, 2.96 for the second.

Going from TGLVGLFVDFFVDLFTQLKFGVVQ [R13D] to TGLVGLFVDFFVVLFTQLKFGVVQ [R13V], the protein stability index falls from 1.83 to 1.76.

Compared with TGLVGLFVDFFVYLFTQLKFGVVQ [R13Y], TGLVGLFVDFFNRLFTQLKFGVVQ [V12N] is lower in protein stability index: 2.62 for the first, 1.56 for the second.

First: TGLVGLFVDFFGRLFTQLKFGVVQ [V12G]
Second: TGLVGLFVDFFCRLFTQLKFGVVQ [V12C]
The protein stability index of the first is lower: 2.11 for the first, 2.71 for the second.

Compared with TGLVGLFVDFFTRLFTQLKFGVVQ [V12T], CGLVGLFVDFFVRLFTQLKFGVVQ [T1C] is higher in protein stability index: 2.08 for the first, 2.14 for the second.

First: AGLVGLFVDFFVRLFTQLKFGVVQ [T1A]
Second: YGLVGLFVDFFVRLFTQLKFGVVQ [T1Y]
The protein stability index of the first is lower: 1.84 for the first, 2.82 for the second.

Going from TGLVGLFVDFFVRLFTQLKFAVVQ [G21A] to TGLVGLFVDFFVRLFTQLKFCVVQ [G21C], the protein stability index falls from 3.26 to 1.86.

Compared with TGLVGLFVDFFVRLFTQLKFRVVQ [G21R], TGLVGLFVQFFVRLFTQLKFGVVQ [D9Q] is lower in protein stability index: 3.56 for the first, 2.24 for the second.

Compared with TGLVGLFVNFFVRLFTQLKFGVVQ [D9N], TGLVGLFVLFFVRLFTQLKFGVVQ [D9L] is lower in protein stability index: 2.87 for the first, 1.86 for the second.

First: TGLVGLFVGFFVRLFTQLKFGVVQ [D9G]
Second: TGLVGLFVPFFVRLFTQLKFGVVQ [D9P]
The protein stability index of the first is higher: 2.47 for the first, 1.92 for the second.

First: TGLVGLFVIFFVRLFTQLKFGVVQ [D9I]
Second: TGLVNLFVDFFVRLFTQLKFGVVQ [G5N]
The protein stability index of the first is higher: 2.68 for the first, 2 for the second.

Going from TGLVWLFVDFFVRLFTQLKFGVVQ [G5W] to TGLVFLFVDFFVRLFTQLKFGVVQ [G5F], the protein stability index falls from 1.86 to 1.72.

TGLVGLFVDFFVRLATQLKFGVVQ [F15A] and TGLVGLFVDFFVRLLTQLKFGVVQ [F15L] are the same in protein stability index: 1.96 for the first, 1.96 for the second.

Compared with TGYVGLFVDFFVRLFTQLKFGVVQ [L3Y], TGDVGLFVDFFVRLFTQLKFGVVQ [L3D] is lower in protein stability index: 2.63 for the first, 2.07 for the second.

Compared with TGRVGLFVDFFVRLFTQLKFGVVQ [L3R], TGGVGLFVDFFVRLFTQLKFGVVQ [L3G] is lower in protein stability index: 2.52 for the first, 1.4 for the second.

First: TGLVGLFVDFFVRLFTQLKFGVVS [Q24S]
Second: TGLVGLFVDFFVRLFTQLKFGVVW [Q24W]
The protein stability index of the first is higher: 2.94 for the first, 2.36 for the second.

Compared with TGLVGLFVDFFVRLFTQLKFGVVK [Q24K], TGLVGLFVDFFVRLFTQLKFGVVR [Q24R] is higher in protein stability index: 3.16 for the first, 3.77 for the second.

First: TGLVGLFVDFFVRLFTQLKFGVVY [Q24Y]
Second: TGLVGLFVDFFVRLFTQLKFGVVH [Q24H]
The protein stability index of the first is lower: 1.74 for the first, 2.07 for the second.

Going from TGLVGLFVDFFVRLFTQLKFGVVD [Q24D] to TGLVGLFVDFFVRLFTQLKFGEVQ [V22E], the protein stability index rises from 2.46 to 3.23.

First: TGLVGEFVDFFVRLFTQLKFGVVQ [L6E]
Second: TGLVGIFVDFFVRLFTQLKFGVVQ [L6I]
The protein stability index of the first is lower: 2.25 for the first, 2.83 for the second.

First: TGLVGVFVDFFVRLFTQLKFGVVQ [L6V]
Second: TGLVGFFVDFFVRLFTQLKFGVVQ [L6F]
The protein stability index of the first is lower: 2.15 for the first, 2.4 for the second.

Compared with TGLVGAFVDFFVRLFTQLKFGVVQ [L6A], TGLVGLFVDFFVRLFTQCKFGVVQ [L18C] is lower in protein stability index: 2.77 for the first, 2.36 for the second.

Compared with TGLVGLFVDFFVRLFTQVKFGVVQ [L18V], TGLVGLFVDFFVRLFTQIKFGVVQ [L18I] is higher in protein stability index: 1.98 for the first, 2.7 for the second.

Going from TGLVGLFVDFFVRLFTQLKKGVVQ [F20K] to TGLVGLFVDFFVRLFTQLKVGVVQ [F20V], the protein stability index falls from 4.3 to 2.84.

Going from TGLVGLIVDFFVRLFTQLKFGVVQ [F7I] to TGLVGLGVDFFVRLFTQLKFGVVQ [F7G], the protein stability index falls from 2.57 to 1.73.

First: TGLVGLVVDFFVRLFTQLKFGVVQ [F7V]
Second: TGLVGLWVDFFVRLFTQLKFGVVQ [F7W]
The protein stability index of the first is higher: 3.05 for the first, 2.28 for the second.

Compared with TGLVGLDVDFFVRLFTQLKFGVVQ [F7D], TGLVGLFVDFFVRLFTMLKFGVVQ [Q17M] is lower in protein stability index: 3.18 for the first, 2.09 for the second.

Compared with TGLVGLFVDFFVRLFTKLKFGVVQ [Q17K], TGLVGLFVDFFVRLFTHLKFGVVQ [Q17H] is lower in protein stability index: 2.48 for the first, 2.26 for the second.
